Assay results: article PMC2887293 (Protein expression and purification, 2010)
Where no end group is shown, it is not given here. fluorescein = fluorescein label attached at the C-terminus

Columns and labels:
… peptide = settings: cited from earlier work
[1] = biological target: human N-His6-mortalin (Δ1-51) (human, UniProt P38646 52-679); test: fluorescence polarisation
human N-His6-mortalin (Δ1-51), sequence (P38646 52-679, stated change not applied): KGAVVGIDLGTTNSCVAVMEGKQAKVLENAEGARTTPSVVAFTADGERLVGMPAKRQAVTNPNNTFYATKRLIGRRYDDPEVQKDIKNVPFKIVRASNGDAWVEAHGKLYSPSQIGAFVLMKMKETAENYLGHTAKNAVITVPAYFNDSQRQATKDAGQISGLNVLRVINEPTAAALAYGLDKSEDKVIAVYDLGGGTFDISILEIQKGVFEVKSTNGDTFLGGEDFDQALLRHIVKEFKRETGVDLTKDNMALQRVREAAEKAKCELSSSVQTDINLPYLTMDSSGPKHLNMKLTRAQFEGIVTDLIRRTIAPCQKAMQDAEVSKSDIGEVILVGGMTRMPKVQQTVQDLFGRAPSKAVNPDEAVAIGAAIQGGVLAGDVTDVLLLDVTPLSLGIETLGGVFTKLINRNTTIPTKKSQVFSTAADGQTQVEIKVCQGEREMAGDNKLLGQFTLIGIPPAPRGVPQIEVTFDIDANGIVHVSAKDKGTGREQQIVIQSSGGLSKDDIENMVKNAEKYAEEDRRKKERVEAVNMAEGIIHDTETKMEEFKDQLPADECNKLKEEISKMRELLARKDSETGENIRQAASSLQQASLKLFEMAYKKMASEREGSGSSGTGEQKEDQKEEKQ

Ssq1, sequence (Q05931 2-657): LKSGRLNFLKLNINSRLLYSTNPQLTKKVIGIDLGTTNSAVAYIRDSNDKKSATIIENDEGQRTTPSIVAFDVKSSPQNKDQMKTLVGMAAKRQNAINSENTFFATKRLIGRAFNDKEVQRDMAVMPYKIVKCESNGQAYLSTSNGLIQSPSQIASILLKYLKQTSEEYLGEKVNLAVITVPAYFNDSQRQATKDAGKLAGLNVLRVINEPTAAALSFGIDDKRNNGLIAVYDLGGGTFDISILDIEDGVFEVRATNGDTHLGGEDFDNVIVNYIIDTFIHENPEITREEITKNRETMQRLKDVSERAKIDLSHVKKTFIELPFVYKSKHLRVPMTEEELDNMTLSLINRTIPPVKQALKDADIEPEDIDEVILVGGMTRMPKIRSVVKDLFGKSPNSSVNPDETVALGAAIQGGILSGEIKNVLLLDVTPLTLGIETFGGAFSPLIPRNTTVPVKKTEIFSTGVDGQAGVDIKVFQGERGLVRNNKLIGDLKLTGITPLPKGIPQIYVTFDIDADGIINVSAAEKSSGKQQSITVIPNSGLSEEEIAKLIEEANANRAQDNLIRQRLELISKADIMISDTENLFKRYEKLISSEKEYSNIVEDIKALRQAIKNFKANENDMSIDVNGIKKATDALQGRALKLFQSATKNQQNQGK

Molecule | Kd (… peptide) [nM] | Kd [1] [nM]
Ssq1 (from UniProt Q05931) | 2800 | 
LSLPPVKLHK-fluorescein [LSLPPVKLHK-fluorescein] |  | 1200 ± 100
